Reference: a protein production outcome set (Wang et al. 2014)

Experiment: label from the status in PepcDB records

Row | Sequence | protein production
1 | MDYSIADCLAANQYTTACCIVQSWTRGEVLLSSYQRVALFIFFDSIEKDLVTHIRSLAGLVTTGFLSAQERDKAAQRAEKSDEPGTVAKDDFELLYQLDLGDKIAIAQRLKQHFGDAFRKHFSAKAASLQAAVPVRNSVMHGRPLTVEEHATAFALANDLVKSNGFWPVLHKALVDYNTDPEAITRRAVSFLEHPSEGGIFHNLPLPDYDDTGFVPRPQLEQELKKKILSRHPVVTVLGDGGNGKTALTVQALYSLVNSGDHDFDAIVWVSAKSSKLTVGEIQRIEHAITTSMGLFEEVVGIFEEDKSNPMSRVRQLLENNKILLAIDNLETVLDDTIRDFVSDIPGQSKVVLTSRIPVGGDLTVEVKPLTDNEGEIYLRALIKSYSIKTLSSLRQDELRYFASRLERRPLLLKWFCMGVIAGLPASKIVSNPEMALRFCLENVFDALSPDATMTLSLMSILPRAVSLGVLHYVSSTDIRKLEAGVAELLKFSILETENQSGYELNYRIKPFARAYVARILRLTAEAQEAVIRKFRGLSFAYQAERGAEGQEKYNFRNFTVRSISEALAAGKLREAVKLAYNDEFEAANAIIDTLKVSNHDYFEVFRTDAFIRFRQHDFAGATDAYRSALELSPETPQLYFFFGGFLLRGYGDCPAAIAQFEEALKRDPESTDVKRELARAKMFDYDFEGAMKILSLERTKPLSNMRTQLIFADLQTQNFQRMITHKSAVGIDADLEAPCSAFADFLVTLDPRIVDSKMTEHLRKARSSIVQALHTRSVRAGARVVALLDKLIGELEASRDDTTDHCASASGLLGTLKEKGRKPNFGFLVDRSNREYFVARAMVSDLVWEGLEGGKIASFEVELDNQGRPRATNVYLI | failed
2 | MILCYGDNNIMMDIYKEIKEEMKKVYLSRDCCFVGYSGGKDSSAMLTLLWDAIAELPLEERTNPIHILTSEVGVETPAMTAYISRTLQKIQEKANEQNLPFVVHGVKPLMKESYWYKVIGRGVLPPSGNSRLRWCTDSLKVKPMQRKMKEILIASQTTTAVECFDEYDGVLMLAVRNEESARRRHSIQKHEISNDSLFSRHNDMKNILCFNPVKFLTGDEVWMLLLDRGI | failed
3 | MLLYIHVPFCRRKCRYCAFHSLPLIGEGGTSPAPEALQTPHADTAITAGPTAASTALAGVAPVTPSAQAISGQDGHTSTKGHGVPPESPPGPTANAAGMSGGIAGIVDRAGGAMRSCTPAEALPAYVETLFSELALWGDRLGNATVETIFFGGGTPSLLPPHVVAAILDRVHRTFSVAPGAEISLEANPESLSNRQQARGLYDAGVNRLSLGVQALDDALLHLMGRPHRARDAIRAFNAARDAGFTNISLDFIWGLPGQRLRQWLDQLREVVRLRPEHLSCYGLTLEEGTPLTADVESGSIALPVEREQAAMFMQGAERLEEAGYLQYEISNFARMGFQCHHNLGYWEGRDYLGLGPSATSTIDGLRWTNPYDHGAWHESVRTGRIGADAERLDLTVRVLELVMLRLRTTRGLRVKAYRELTGRDFLRDHKPLVHLLHRNGLVRIRDGYLRLTRNGMLVSNSILERFFERSETLLTLESTEKTHETRMAGPISGDTP | failed
4 | MDRLTEMEAFANVVDQGGFTDAAKKMGISKSAVSKHVSSLEARLGARLLNRTTRRVSPTEIGLAYYDRARRVLNDAGEADALVTSMQSAPSGLLRISVATDFGVNHLSPVLSDFLAEFPDITVNMVLNNRYVELISEGFDMAVRIGELEDSTLRARKLTETTKRMIASPKYFEKYGHPQKIDDLNEHKLLHYSSQASGNVWKLTAPSGEKRQVRTAGWLSVNDGQSLLNAAISGLGIAYLPCYLFAEAMEQGLVEDAMPSLPDEVQGIYAVYPPGRFTQPKVRAFIDFLVHSFADKGPMNW | not failed
5 | MNIFTEAAKLEEQNCPFAMAQIVDSRGSTPRHSAQMLVRADGSIVGTIGGGMVERKVIEESLQALQERKPRLFHGRMARNGADAVGSDCGGAMSVFISVHGMRPRLVLIGAGHVNRAIAQSAALLGFDIAVADIYRESLNPELFPPSTTLLHAESFGAAVEALDIRPDNFVLIATNNQDREALDKLIEQPIAWLGLLASRRKVQLFLRQLREKGVAEEHIARLHAPVGYNIGAETPQEIAISVLAEILQVKNNAPGGLMMKPSHPSGHQLVVIRGAGDIASGVALRLYHAGFKVIMLEVEKPTVIRCTVAFAQAVFDGEMTVEGVTARLATSSAEAMKLTERGFIPVMVDPACSLLDELKPLCVVDAILAKQNLGTRADMAPVTIALGPGFTAGKDCHAVIETNRGHWLGQVIYSGCAQENTGVPGNIMGHTTRRVIRAPAAGIMRSNVKLGDLVKEGDVIAWIGEHEIKAPLTGMVRGLLNDGLAVVGGFKIGDIDPRGETADFTSVSDKARAIGGGVLEALMMLMHQGVKATKEVLEVALEHHHHHH | failed
